Patent US20140087995A1 (published 2014)
Numbered stars: 1 amine (or outer) side, 2 acyl side, 3 side chain; on linkers, the order of the positions; unused ones are H or OH. Bridge positions count the residues as written; N and C are the ends. Side chains are listed from the residue outwards. Ends that are not written are not given here. * marks the point of attachment. C20 diacid = O=C(O)CCCCCCCCCCCCCCCCCCC(=O)*; γGlu = O=C(O)[C@H](CCC(=O)[*:2])N[*:1]; AEEA = NCCOCCOCC(=O)O

T1: rat calcitonin receptor (rat, UniProt P32214 25-516)
T1 construct: whole, on cells; Membranes of BHK tk'ts 13 cells transiently transfected with the rat calcitonin receptor; also called rCTR; rat calcitonin (a) receptor
T1 sequence (looked up): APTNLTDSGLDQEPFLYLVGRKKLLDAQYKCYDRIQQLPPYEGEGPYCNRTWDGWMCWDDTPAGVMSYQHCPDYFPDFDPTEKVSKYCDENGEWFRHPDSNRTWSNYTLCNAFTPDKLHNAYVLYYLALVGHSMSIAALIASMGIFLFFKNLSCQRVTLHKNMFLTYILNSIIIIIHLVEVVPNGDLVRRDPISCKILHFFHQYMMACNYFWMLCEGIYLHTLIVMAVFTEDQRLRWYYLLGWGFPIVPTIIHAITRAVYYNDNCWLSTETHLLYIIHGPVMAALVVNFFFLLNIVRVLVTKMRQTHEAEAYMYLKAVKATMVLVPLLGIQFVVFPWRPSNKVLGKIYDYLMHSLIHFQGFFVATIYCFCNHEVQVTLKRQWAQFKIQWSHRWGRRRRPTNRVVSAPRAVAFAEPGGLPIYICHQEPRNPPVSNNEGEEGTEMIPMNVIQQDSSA

T2: rat amylin receptor (rat calcitonin receptor + rat RAMP 3) (rat, UniProt P32214 25-516; Q9JJ73 23-147)
T2 construct: whole, on cells; Membranes of BHK tk'ts 13 cells transiently transfected with the rat calcitonin receptor and rat RAMP 3; also called rAmylin-R; rat amylin 3(a) receptor
T2 sequence (looked up) 1: T1 sequence (looked up)
T2 sequence (looked up) 2: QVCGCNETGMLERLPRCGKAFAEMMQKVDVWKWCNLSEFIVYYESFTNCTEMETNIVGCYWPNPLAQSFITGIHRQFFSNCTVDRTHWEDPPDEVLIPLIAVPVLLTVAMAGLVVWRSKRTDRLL

T3: human calcitonin receptor (human, UniProt P30988 25-474)
T3 construct: whole, on cells; Membranes of a BHK tk'ts 13 cell line stably transfected with the human calcitonin receptor; also called hCTR; hCT
T3 sequence (looked up): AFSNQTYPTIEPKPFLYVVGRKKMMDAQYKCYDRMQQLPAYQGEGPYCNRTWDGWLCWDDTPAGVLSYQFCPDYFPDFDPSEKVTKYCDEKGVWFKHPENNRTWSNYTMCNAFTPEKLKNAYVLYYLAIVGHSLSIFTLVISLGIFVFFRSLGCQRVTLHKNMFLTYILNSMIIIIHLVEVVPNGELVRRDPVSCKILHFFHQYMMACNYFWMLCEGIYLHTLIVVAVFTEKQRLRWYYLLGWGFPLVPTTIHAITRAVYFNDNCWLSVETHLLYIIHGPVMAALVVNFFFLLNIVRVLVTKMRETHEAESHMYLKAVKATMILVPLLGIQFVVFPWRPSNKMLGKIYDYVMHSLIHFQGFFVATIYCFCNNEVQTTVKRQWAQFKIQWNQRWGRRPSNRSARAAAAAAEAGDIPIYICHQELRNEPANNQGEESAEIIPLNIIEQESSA

B1: N^α1-[(4S)-4-carboxy-4-(19-carboxynonadecanoylamino)butanoyl]-[His14,Arg17,Pro21,Pro27,Glu35]-h-amylin (peptide)
peptide: {C20 diacid-γGlu}-KCNTATCATQRLAHFLRHSSPNFGAIPSSTNVGSETY-NH2
modifications: disulfide 2-7
SMILES: CC[C@H](C)[C@H](NC(=O)[C@H](C)NC(=O)CNC(=O)[C@H](Cc1ccccc1)NC(=O)[C@H](CC(N)=O)NC(=O)[C@@H]1CCCN1C(=O)[C@H](CO)NC(=O)[C@H](CO)NC(=O)[C@H](Cc1c[nH]cn1)NC(=O)[C@H](CCCNC(=N)N)NC(=O)[C@H](CC(C)C)NC(=O)[C@H](Cc1ccccc1)NC(=O)[C@H](Cc1c[nH]cn1)NC(=O)[C@H](C)NC(=O)[C@H](CC(C)C)NC(=O)[C@H](CCCNC(=N)N)NC(=O)[C@H](CCC(N)=O)NC(=O)[C@@H](NC(=O)[C@H](C)NC(=O)[C@@H]1CSSC[C@H](NC(=O)[C@H](CCCCN)NC(=O)CC[C@H](NC(=O)CCCCCCCCCCCCCCCCCCC(=O)O)C(=O)O)C(=O)N[C@@H](CC(N)=O)C(=O)N[C@@H]([C@@H](C)O)C(=O)N[C@@H](C)C(=O)N[C@@H]([C@@H](C)O)C(=O)N1)[C@@H](C)O)C(=O)N1CCC[C@H]1C(=O)N[C@@H](CO)C(=O)N[C@@H](CO)C(=O)N[C@H](C(=O)N[C@@H](CC(N)=O)C(=O)N[C@H](C(=O)NCC(=O)N[C@@H](CO)C(=O)N[C@@H](CCC(=O)O)C(=O)N[C@H](C(=O)N[C@@H](Cc1ccc(O)cc1)C(N)=O)[C@@H](C)O)C(C)C)[C@@H](C)O
notes: modifications are with respect to human amylin; also called compound 30
B2: N^α1N^α1-[(4S)-4-carboxy-4-(19-carboxynonadecanoylamino)butanoyl]-[Glu14,Arg17,Pro21,Pro27,Glu35]-h-amylin (peptide)
peptide: {C20 diacid-γGlu}-KCNTATCATQRLAEFLRHSSPNFGAIPSSTNVGSETY-NH2
modifications: disulfide 2-7
SMILES: CC[C@H](C)[C@H](NC(=O)[C@H](C)NC(=O)CNC(=O)[C@H](Cc1ccccc1)NC(=O)[C@H](CC(N)=O)NC(=O)[C@@H]1CCCN1C(=O)[C@H](CO)NC(=O)[C@H](CO)NC(=O)[C@H](Cc1c[nH]cn1)NC(=O)[C@H](CCCNC(=N)N)NC(=O)[C@H](CC(C)C)NC(=O)[C@H](Cc1ccccc1)NC(=O)[C@H](CCC(=O)O)NC(=O)[C@H](C)NC(=O)[C@H](CC(C)C)NC(=O)[C@H](CCCNC(=N)N)NC(=O)[C@H](CCC(N)=O)NC(=O)[C@@H](NC(=O)[C@H](C)NC(=O)[C@@H]1CSSC[C@H](NC(=O)[C@H](CCCCN)NC(=O)CC[C@H](NC(=O)CCCCCCCCCCCCCCCCCCC(=O)O)C(=O)O)C(=O)N[C@@H](CC(N)=O)C(=O)N[C@@H]([C@@H](C)O)C(=O)N[C@@H](C)C(=O)N[C@@H]([C@@H](C)O)C(=O)N1)[C@@H](C)O)C(=O)N1CCC[C@H]1C(=O)N[C@@H](CO)C(=O)N[C@@H](CO)C(=O)N[C@H](C(=O)N[C@@H](CC(N)=O)C(=O)N[C@H](C(=O)NCC(=O)N[C@@H](CO)C(=O)N[C@@H](CCC(=O)O)C(=O)N[C@H](C(=O)N[C@@H](Cc1ccc(O)cc1)C(N)=O)[C@@H](C)O)C(C)C)[C@@H](C)O
notes: modifications are with respect to human amylin; also called compound 22
B3: N^ε1-[2-[2-[2-[[2-[2-[2-[[(4S)-4-carboxy-4-(19-carboxynonadecanoylamino)butanoyl]amino]ethoxy]ethoxy]acetyl]amino]ethoxy]ethoxy]acetyl]-[Arg17,Pro21,Pro27,Glu35 … (peptide)
peptide: K([AEEA-AEEA-γGlu-C20 diacid])CNTATCATQRLANFLRHSSPNFGAIPSSTNVGSETY-NH2
modifications: disulfide 2-7; N-terminus assumed
SMILES: CC[C@H](C)[C@H](NC(=O)[C@H](C)NC(=O)CNC(=O)[C@H](Cc1ccccc1)NC(=O)[C@H](CC(N)=O)NC(=O)[C@@H]1CCCN1C(=O)[C@H](CO)NC(=O)[C@H](CO)NC(=O)[C@H](Cc1c[nH]cn1)NC(=O)[C@H](CCCNC(=N)N)NC(=O)[C@H](CC(C)C)NC(=O)[C@H](Cc1ccccc1)NC(=O)[C@H](CC(N)=O)NC(=O)[C@H](C)NC(=O)[C@H](CC(C)C)NC(=O)[C@H](CCCNC(=N)N)NC(=O)[C@H](CCC(N)=O)NC(=O)[C@@H](NC(=O)[C@H](C)NC(=O)[C@@H]1CSSC[C@H](NC(=O)[C@@H](N)CCCCNC(=O)COCCOCCNC(=O)COCCOCCNC(=O)CC[C@H](NC(=O)CCCCCCCCCCCCCCCCCCC(=O)O)C(=O)O)C(=O)N[C@@H](CC(N)=O)C(=O)N[C@@H]([C@@H](C)O)C(=O)N[C@@H](C)C(=O)N[C@@H]([C@@H](C)O)C(=O)N1)[C@@H](C)O)C(=O)N1CCC[C@H]1C(=O)N[C@@H](CO)C(=O)N[C@@H](CO)C(=O)N[C@H](C(=O)N[C@@H](CC(N)=O)C(=O)N[C@H](C(=O)NCC(=O)N[C@@H](CO)C(=O)N[C@@H](CCC(=O)O)C(=O)N[C@H](C(=O)N[C@@H](Cc1ccc(O)cc1)C(N)=O)[C@@H](C)O)C(C)C)[C@@H](C)O
notes: modifications are with respect to human amylin; also called compound 25
B4: N^ε1-[2-[2-[2-[[(4S)-4-carboxy-4-(19-carboxynonadecanoylamino)butanoyl]amino]ethoxy]ethoxy]acetyl]-[Arg17,Pro21,Pro27,Glu35]-h-amylin (peptide)
peptide: K([AEEA-γGlu-C20 diacid])CNTATCATQRLANFLRHSSPNFGAIPSSTNVGSETY-NH2
modifications: disulfide 2-7; N-terminus assumed
SMILES: CC[C@H](C)[C@H](NC(=O)[C@H](C)NC(=O)CNC(=O)[C@H](Cc1ccccc1)NC(=O)[C@H](CC(N)=O)NC(=O)[C@@H]1CCCN1C(=O)[C@H](CO)NC(=O)[C@H](CO)NC(=O)[C@H](Cc1c[nH]cn1)NC(=O)[C@H](CCCNC(=N)N)NC(=O)[C@H](CC(C)C)NC(=O)[C@H](Cc1ccccc1)NC(=O)[C@H](CC(N)=O)NC(=O)[C@H](C)NC(=O)[C@H](CC(C)C)NC(=O)[C@H](CCCNC(=N)N)NC(=O)[C@H](CCC(N)=O)NC(=O)[C@@H](NC(=O)[C@H](C)NC(=O)[C@@H]1CSSC[C@H](NC(=O)[C@@H](N)CCCCNC(=O)COCCOCCNC(=O)CC[C@H](NC(=O)CCCCCCCCCCCCCCCCCCC(=O)O)C(=O)O)C(=O)N[C@@H](CC(N)=O)C(=O)N[C@@H]([C@@H](C)O)C(=O)N[C@@H](C)C(=O)N[C@@H]([C@@H](C)O)C(=O)N1)[C@@H](C)O)C(=O)N1CCC[C@H]1C(=O)N[C@@H](CO)C(=O)N[C@@H](CO)C(=O)N[C@H](C(=O)N[C@@H](CC(N)=O)C(=O)N[C@H](C(=O)NCC(=O)N[C@@H](CO)C(=O)N[C@@H](CCC(=O)O)C(=O)N[C@H](C(=O)N[C@@H](Cc1ccc(O)cc1)C(N)=O)[C@@H](C)O)C(C)C)[C@@H](C)O
notes: modifications are with respect to human amylin; also called compound 26
B5: N^ε1-[2-[2-[2-[[(4S)-4-carboxy-4-(19-carboxynonadecanoylamino)butanoyl]amino]ethoxy]ethoxy]acetyl]-[Arg17,Pro21,Pro27,Pro31]-h-amylin (peptide)
peptide: K([AEEA-γGlu-C20 diacid])CNTATCATQRLANFLRHSSPNFGAIPSSTPVGSNTY-NH2
modifications: disulfide 2-7; N-terminus assumed
SMILES: CC[C@H](C)[C@H](NC(=O)[C@H](C)NC(=O)CNC(=O)[C@H](Cc1ccccc1)NC(=O)[C@H](CC(N)=O)NC(=O)[C@@H]1CCCN1C(=O)[C@H](CO)NC(=O)[C@H](CO)NC(=O)[C@H](Cc1c[nH]cn1)NC(=O)[C@H](CCCNC(=N)N)NC(=O)[C@H](CC(C)C)NC(=O)[C@H](Cc1ccccc1)NC(=O)[C@H](CC(N)=O)NC(=O)[C@H](C)NC(=O)[C@H](CC(C)C)NC(=O)[C@H](CCCNC(=N)N)NC(=O)[C@H](CCC(N)=O)NC(=O)[C@@H](NC(=O)[C@H](C)NC(=O)[C@@H]1CSSC[C@H](NC(=O)[C@@H](N)CCCCNC(=O)COCCOCCNC(=O)CC[C@H](NC(=O)CCCCCCCCCCCCCCCCCCC(=O)O)C(=O)O)C(=O)N[C@@H](CC(N)=O)C(=O)N[C@@H]([C@@H](C)O)C(=O)N[C@@H](C)C(=O)N[C@@H]([C@@H](C)O)C(=O)N1)[C@@H](C)O)C(=O)N1CCC[C@H]1C(=O)N[C@@H](CO)C(=O)N[C@@H](CO)C(=O)N[C@H](C(=O)N1CCC[C@H]1C(=O)N[C@H](C(=O)NCC(=O)N[C@@H](CO)C(=O)N[C@@H](CC(N)=O)C(=O)N[C@H](C(=O)N[C@@H](Cc1ccc(O)cc1)C(N)=O)[C@@H](C)O)C(C)C)[C@@H](C)O
notes: modifications are with respect to human amylin; also called compound 49

These binders were tested against T1, rat calcitonin receptor (assay: SPA competition vs 125I-calcitonin, membranes with rat CTR (Assay VIII)).

Binder | IC50
B1 | 114 nM
B2 | 62.5 nM
B3 | 131 nM
B4 | 152 nM
B5 | 51.4 nM

What follows are binders tested against T1, rat calcitonin receptor (assay: IC50 at rCTR divided by IC50 at rAmylin-R (reference)).

Binder | Ratio rCT/rAmylin binding
B1 | 36.1
B2 | 28.5
B3 | 37.7
B4 | 309
B5 | 47.7

The binders below were run against T2, rat amylin receptor (rat calcitonin …) (assay: SPA competition vs 125I-rat amylin, membranes with rat CTR + rat RAMP3 (Assay VI)).

Binder | IC50
B1 | 3.14 nM
B2 | 2.19 nM
B3 | 3.48 nM
B4 | 0.491 nM
B5 | 1.08 nM

These binders were tested against T3, human calcitonin receptor (assay: IC50 at hCTR divided by IC50 at hAmylin-R (reference)).
Method in brief: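 Competition binding by SPA uses membrane preparations (35 ng/μL final) in pH 7.4 Hepes buffer with 1 mM CaCl2 and 5 mM MgCl₂. Incubation lasts 120 min at 25° C, and IC₅₀ comes from one-site fitting.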

Binder | Ratio hCT/hAmylin binding
B1 | 23.6
B2 | 12.3
B3 | 56.5
B4 | 47.5
B5 | 10.8
